# Laboratory results: patent US20140086829A1 (BIOREC S A, published 2014)
# Experiments:
# P64K-VEGFKDR- (human) = P64K-VEGFKDR- (human) (UniProt P15692); test: ELISA; antigen coated 1 µg/ml; scFv 10 µg/mL; 9E10-peroxidase
# [1] = molecular target: T1, isoform 121 of human VEGF-A (Peprotech) (human, UniProt P15692-9 27-147); test: as above
# T1 construct: also called human VEGF121; VEGF 121
# T1 sequence (looked up): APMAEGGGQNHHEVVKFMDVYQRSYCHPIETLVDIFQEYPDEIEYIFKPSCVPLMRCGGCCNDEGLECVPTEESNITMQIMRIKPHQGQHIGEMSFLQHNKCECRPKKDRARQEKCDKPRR
# [2] = molecular target: T2, isoform 165 of human VEGF-A (Peprotech) (human, UniProt P15692-4 27-191); test: as above
# T2 construct: also called human VEGF165; VEGF 165
# mouse VEGF (Peprotech) = molecular target: T3, mouse VEGF (Peprotech) (mouse, UniProt Q00731-2 27-190, limits assumed); test: as above
# T3 construct: also called Mouse VEGF-A
# T3 sequence (looked up): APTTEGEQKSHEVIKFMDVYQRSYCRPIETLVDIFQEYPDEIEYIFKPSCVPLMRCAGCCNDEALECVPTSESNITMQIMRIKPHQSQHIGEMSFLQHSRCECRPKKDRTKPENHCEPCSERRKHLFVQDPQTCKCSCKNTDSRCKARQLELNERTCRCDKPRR
# [3] = molecular target: T2, isoform 165 of human VEGF-A (Peprotech); test: SPR, BIAcore-X; VEGF 165 coupled to CM5 chip; scFv injected; Langmuir 1:1
# human GST-VEGF [4] = molecular target: T4, human GST-VEGF (human, UniProt P15692-9 27-147); test: competition ELISA on coated GST-VEGF; soluble scFv 2H1 titrated; competitor phage scFv L1
# T4 construct: also called GST-VEGF humano; not shown: GST fusion partner
# T4 sequence (looked up): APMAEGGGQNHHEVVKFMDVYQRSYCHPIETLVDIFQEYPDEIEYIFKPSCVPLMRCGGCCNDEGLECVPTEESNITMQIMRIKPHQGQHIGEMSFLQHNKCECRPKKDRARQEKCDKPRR
# human GST-VEGF [5] = molecular target: T4, human GST-VEGF; test: competition ELISA on coated GST-VEGF; soluble scFv 2H1 titrated; competitor phage scFv L3
# human GST-VEGF [6] = molecular target: T4, human GST-VEGF; test: competition ELISA on coated GST-VEGF; soluble scFv 2H1 titrated; competitor phage scFv 2A7
# human GST-VEGF [7] = molecular target: T4, human GST-VEGF; test: competition ELISA on coated GST-VEGF; soluble scFv 2H1 titrated; competitor phage scFv 3C4
# human GST-VEGF [8] = molecular target: T4, human GST-VEGF; test: competition ELISA on coated GST-VEGF; soluble scFv 2H1 titrated; competitor phage scFv 3D4
# human GST-VEGF [9] = molecular target: T4, human GST-VEGF; test: competition ELISA on coated GST-VEGF; soluble scFv 2H1 titrated; competitor phage scFv 3E2
# human GST-VEGF [10] = molecular target: T4, human GST-VEGF; test: competition ELISA on coated GST-VEGF; soluble scFv 2H1 titrated; competitor phage scFv 3E5
# human GST-VEGF [11] = molecular target: T4, human GST-VEGF; test: competition ELISA on coated GST-VEGF; soluble scFv 2H1 titrated; competitor phage scFv 3E9
# human GST-VEGF [12] = molecular target: T4, human GST-VEGF; test: competition ELISA on coated GST-VEGF; soluble scFv 2H1 titrated; competitor phage scFv 3F3
# human GST-VEGF [13] = molecular target: T4, human GST-VEGF; test: competition ELISA on coated GST-VEGF; soluble scFv 2H1 titrated; competitor phage scFv 4F2
# human GST-VEGF [14] = molecular target: T4, human GST-VEGF; test: competition ELISA on coated GST-VEGF; soluble scFv 2H1 titrated; competitor phage scFv 4H3
# human GST-VEGF [15] = molecular target: T4, human GST-VEGF; test: competition ELISA on coated GST-VEGF; soluble scFv 2H1 titrated; competitor phage scFv 1B1
# human GST-VEGF [16] = molecular target: T4, human GST-VEGF; test: competition ELISA on coated GST-VEGF; soluble scFv 2H1 titrated; competitor phage scFv 1H2
# human GST-VEGF [17] = molecular target: T4, human GST-VEGF; test: competition ELISA on coated GST-VEGF; soluble scFv 2H1 titrated; competitor phage scFv 2F6
# human GST-VEGF [18] = molecular target: T4, human GST-VEGF; test: competition ELISA on coated GST-VEGF; soluble scFv 2H1 titrated; competitor phage scFv 3E3
# human GST-VEGF [19] = molecular target: T4, human GST-VEGF; test: competition ELISA on coated GST-VEGF; soluble scFv 2H1 titrated; competitor phage scFv 3E10
# human GST-VEGF [20] = molecular target: T4, human GST-VEGF; test: competition ELISA on coated GST-VEGF; soluble scFv 2H1 titrated; competitor phage scFv 3E12
# human GST-VEGF [21] = molecular target: T4, human GST-VEGF; test: competition ELISA on coated GST-VEGF; soluble scFv 2H1 titrated; competitor phage scFv 1D12
# human GST-VEGF [22] = molecular target: T4, human GST-VEGF; test: competition ELISA on coated GST-VEGF; soluble scFv 2H1 titrated; competitor phage scFv L3H5
# human GST-VEGF [23] = molecular target: T4, human GST-VEGF; test: competition ELISA on coated GST-VEGF; soluble scFv 2H1 titrated; competitor phage scFv 2H1 original
# T2 sequence (P15692 other isoform, or with tags, fused parts or gaps limits assumed): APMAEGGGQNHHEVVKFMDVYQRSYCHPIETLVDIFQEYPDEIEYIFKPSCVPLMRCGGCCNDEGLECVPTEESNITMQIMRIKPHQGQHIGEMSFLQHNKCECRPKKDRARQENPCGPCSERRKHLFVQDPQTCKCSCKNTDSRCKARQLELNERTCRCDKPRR
binder,measurement,setting,value
"soluble scFv 2H1 antibody fragment (scFv, from another filing) scFv: QQVQLVQSGAEVKKPGESLKISCKGSGYSFTSYWIGWVRQMPGKGLEWMGIIYPGDSDTRYSPSFQGQVTISADKSISTAYLQWSSLKASDTAMYYCARLVVRDTEIWGQGTMVTVSSAPQAKSSGSGSESKVDQAVVTQEPSLTVSPGGTVTLTCASSIGAVTSGNYPNWFQQRPGQPPRALIYSTSNKHSWTPARFSGSLLGGKAALTLSGAQPEDEAEYYCLLSYSGARPVFGGGTKLTVLGAAAGSEQKLISEEDLNSHHHHHH",absorbance at 492 nm,P64K-VEGFKDR- (human),0.764
same,absorbance at 492 nm,[1],0.691
same,absorbance at 492 nm,[2],0.665
same,absorbance at 492 nm,mouse VEGF (Peprotech),0.09
same,Kd,[3],457 nM
same,IC50,human GST-VEGF [4],11.7 µg/mL
same,IC50,human GST-VEGF [5],358 µg/mL
same,IC50,human GST-VEGF [6],15.8 µg/mL
same,IC50,human GST-VEGF [7],29 µg/mL
same,IC50,human GST-VEGF [8],16.3 µg/mL
same,IC50,human GST-VEGF [9],15.3 µg/mL
same,IC50,human GST-VEGF [10],9.06 µg/mL
same,IC50,human GST-VEGF [11],15 µg/mL
same,IC50,human GST-VEGF [12],48.9 µg/mL
same,IC50,human GST-VEGF [13],4.98 µg/mL
same,IC50,human GST-VEGF [14],12.2 µg/mL
same,IC50,human GST-VEGF [15],149 µg/mL
same,IC50,human GST-VEGF [16],120 µg/mL
same,IC50,human GST-VEGF [17],115 µg/mL
same,IC50,human GST-VEGF [18],34.6 µg/mL
same,IC50,human GST-VEGF [19],15.1 µg/mL
same,IC50,human GST-VEGF [20],18.3 µg/mL
same,IC50,human GST-VEGF [21],58.9 µg/mL
same,IC50,human GST-VEGF [22],940 µg/mL
same,IC50,human GST-VEGF [23],4.89 µg/mL
